{"source": "patent US20240173425A1", "about": "“HUMAN CD33 ANTIBODIES AND GLUCOCORTICOID CONJUGATES” (Eli Lilly and Company, priority 2022, published 2024)", "molecules": {"B1": {"name": "Gemtuzumab: Gemtuzumab (hIgG4PAA), comparator anti-CD33 antibody in the internalization assay (antibody, chains of the INN, looked up, V domains shown)", "VH": "EVQLVQSGAEVKKPGSSVKVSCKASGYTITDSNIHWVRQAPGQSLEWIGYIYPYNGGTDYNQKFKNRATLTVDNPTNTAYMELSSLRSEDTAFYYCVNGNPWLAYWGQGTLVTVSS", "VL": "DIQLTQSPSTLSASVGDRVTITCRASESLDNYGIRFLTWFQQKPGKAPKLLMYAASNQGSGVPSRFSGSGSGTEFTLTISSLQPDDFATYYCQQTKEVPWSFGQGTKVEVK", "modifications": "hIgG4PAA", "notes": "Gemtuzumab (hIgG4PAA), comparator anti-CD33 antibody in the internalization assay"}}, "test_system": "primary human monocyte cells", "assay": "Antibody internalization (pHrodo Red, flow cytometry)", "assay_type": "cell-based", "details": "pHrodo-labeled antibodies 10 μg/mL, 2 hours at 37° C.", "experimental": "Exemplified anti-human CD33 antibodies were labeled with pHrodo™ Red, amine-reactive dye (Thermo Fisher, P36014). The pH-sensitive dye was a non-fluorescent when outside the cells but fluoresces brightly in acidic low-pH lysosomes. This property allows visualization and qualification of the internalization of an antibody by flow cytometry. Human PBMCs (500 K/well) were incubated on ice in FACS buffer for 30 min, to quiesce baseline internalization. Cells were stained with pHrodo-labeled antibodies (10 μg/mL) in FACS buffer for 1 hour on ice then transferred to 37° C. for 2 hours. Cells were then stained with the remaining panel of surface detection marker: CD45 mAb (clone HI30); CD11b (clone ICRF44); CD14 (clone M5E2).", "data": [{"molecule": "B1", "values": [{"measurement": "% Internalization", "value": "50.55 ± 2.899", "unit": "%"}, {"measurement": "% Internalization", "setting": "listed as Gemtuzumab (hIgG4PAA)", "value": "about 50%"}]}]}
